Experimental findings from patent US20030133935A1 (published 2003) are described below.

The test concerns the target human tumor necrosis factor-α (TNFα) (human, UniProt P01375 77-233). The experiment in a line: cell-based or functional assay.

Chain of human tumor necrosis factor-α (TNFα) (P01375 77-233): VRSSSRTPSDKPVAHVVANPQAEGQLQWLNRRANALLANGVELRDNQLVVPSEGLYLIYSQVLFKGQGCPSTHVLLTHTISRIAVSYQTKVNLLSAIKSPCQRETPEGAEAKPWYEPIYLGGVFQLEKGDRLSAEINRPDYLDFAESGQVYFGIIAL

B1: p55-sf2 TNF receptor/IgG1 fusion protein (Fc fusion)
chain: QVCPQGKYIHPQNNSICCTKCHKGTYLYNDCPGPGQDTDCRECESGSFTASENHLRHCLSCSKCRKEMGQVEISSCTVDRDTVCGCRKNQYRHYWSENLFQCFNCSLCLNGTVHLSCQEKQNTVCTCHAGFFLRENECVSCSNCKKSLECTKLCLPQIGTLVTVSS
Take B1: the “IC50: concentration of fusion protein required to inhibit 2 ng/ml (39.2 pM) TNFα by 50%, WEHI 164 cytotoxicity assay” value worked out at 70 pM.

B2: chimeric mouse/human IgG1 anti-platelet mAb (7E3) (antibody, INN chains, looked up, V domains shown)
VH: EVQLQQSGTVLARPGASVKMSCEASGYTFTNYWMHWVKQRPGQGLEWIGAIYPGNSDTSYIQKFKGKAKLTAVTSTTSVYMELSSLTNEDSAVYYCTLYDGYYVFAYWGQGTLVTVSA
VL: EIVLTQSPVTLSVTPGDSVSLSCRASRDISNNLHWFQQTSHESPRLLIKYASQSMSGIPSRFSGSGSGTDFTLSINSVETEDFGMYFCQQTNSWPYTFGGGTKLEIK
modifications: IgG1
On to B2, for which the IL-6 secreted by FS-4 fibroblasts (ng/ml), rhTNF 0.3 ng/ml, antibody 4 µg/ml (no antibody: 1.36) came to 1.6 ng/mL; the IL-6 secreted by FS-4 fibroblasts (ng/ml), rhTNF 1.5 ng/ml, antibody 4 µg/ml (no antibody: 2.00) stood at 1.96 ng/mL; the IL-6 secreted by FS-4 fibroblasts (ng/ml), rhTNF 7.5 ng/ml, antibody 4 µg/ml (no antibody: 2.56) was 2.16 ng/mL.
